In EP4674868A1 (Jiangsu Hengrui Pharmaceuticals Co., Ltd., dated 2026):
Read-outs that look alike come from different tables or passages of the source. Blank lines part the entries; values can stand above or below the binder they belong to.

Legend:
[1] = target: T1, human 4-1BB on the surface of HEK293 cells (HEK293-Hu4-1BB) (human, UniProt Q07011 24-255); test: cell-based or functional assay
[2] = target: T2, human FAP on the surface of CHO-K1 cells (CHO-K1-HuFAP) (human, UniProt Q12884 1-760); test: FACS, CHO-K1-HuFAP cells
T2 construct: whole, on cells; also called CHO cell line overexpressing human FAP; FAP on the surface of CHO-K1-HuFAP cells

[3] = target: T3, human CD40 on the surface of HEK293 cells (HEK293-HuCD40) (human, UniProt P25942 21-277); test: cell-based or functional assay
[4] = target: T1, human 4-1BB on the surface of HEK293 …; test: cell-based or functional assay; remark: listed apart in the source
[5] = target: T3, human CD40 on the surface of HEK293 …; test: cell-based or functional assay; remark: listed apart in the source
[6] = target: T1, human 4-1BB on the surface of HEK293 …; test: FACS, HEK293-Hu4-1BB cells
[7] = target: T3, human CD40 on the surface of HEK293 …; test: FACS, HEK293-HuCD40 cells
[8] = target: T1, human 4-1BB on the surface of HEK293 …; test: FACS, HEK293-Hu4-1BB cells; remark: listed apart in the source
[9] = target: T2, human FAP on the surface of CHO-K1 …; test: FACS, CHO-K1-HuFAP cells; remark: listed apart in the source
[10] = target: T3, human CD40 on the surface of HEK293 …; test: FACS, HEK293-HuCD40 cells; remark: listed apart in the source
[11] = target: T4, h-FAP-His (recombinant human fibroblast activation protein, Leu26-Asp760, His-tagged) (human, UniProt Q12884 26-760); test: SPR, antibody captured by anti-human IgG (Fc) on CM5 chip, h-FAP-His as analyte
T4 construct: range 26-760; Bought protein with a His tag; also called human FAP-His protein; His-tagged FAP recombinant protein

[12] = target: T1, human 4-1BB on the surface of HEK293 …; test: FACS, HEK293-Hu4-1BB cells; remark: listed apart in the source
[13] = target: T1, human 4-1BB on the surface of HEK293 …; test: FACS, HEK293-Hu4-1BB cells; remark: listed apart in the source
[14] = target: T1, human 4-1BB on the surface of HEK293 …; test: cell-based or functional assay; remark: listed apart in the source

EC50 [13]: 1.65 nM
B5: humanized anti-4-1BB nanobody C5_V3 linked to human IgG1-Fc (Fc fusion)
chain: QVQLVESGGGLVQPGGSLRLSCSASGFTFSSYAMSWVRQAPGKGLEWVSDINSGGESTFYEDSVKGRFTISRDNAKNTLYLQMNSLKPEDTAVYYCAKHPLTFTIATMNDYDYWGQGTLVTVSSEPKSADKTHTCPPCPAPELLGGPSVFLFPPKPKDTLMISRTPEVTCVVVDVEHEDPEVKFNWYVDGVEVHNAKTKPREEQYNSTYRVVSVLTVLHQDWLNGKEYKCKVSSKAFPAPIEKTISKAKGQPREPQVYTLPPSRDELTKNQVSLTCLVKGFYPSDIAVEWESNGQPENNYKTTPPVLDSDGSFFLYSKLTVDKSRWQQGNVFSCSVMHEALHNHYTQKSLSLSPGK

Activation of HEK293-4-1BB cells (NF-κB reporter), Fold change in Emax [14]: 1.14 fold
FcγRIIb-mediated activation of HEK293-4-1BB cells (NF-κB reporter), Fold change in Emax [14]: 2.28 fold
EC50 [13]: 3.79 nM
Maximum fluorescence value [13]: 1040
B6: humanized anti-4-1BB nanobody C5_V1 linked to human IgG1-Fc (Fc fusion)
chain: QVQLVESGGGLVQPGGSLRLSCSASGFTFSSYAMSWVRQAPGKGLEWVSDINSGGESTFYEDSVKGRFTISRDNAKNTLYLQMNSLRAEDTAVYYCARHPLTFTIATMNDYDYWGQGTLVTVSSEPKSADKTHTCPPCPAPELLGGPSVFLFPPKPKDTLMISRTPEVTCVVVDVEHEDPEVKFNWYVDGVEVHNAKTKPREEQYNSTYRVVSVLTVLHQDWLNGKEYKCKVSSKAFPAPIEKTISKAKGQPREPQVYTLPPSRDELTKNQVSLTCLVKGFYPSDIAVEWESNGQPENNYKTTPPVLDSDGSFFLYSKLTVDKSRWQQGNVFSCSVMHEALHNHYTQKSLSLSPGK

Further lines, the binder ahead of its results:

B1: BNT312 (CD40/4-1BB bispecific antibody molecule, control) (bispecific antibody, human IgG1, kappa)
heavy 1: EVQLVQSGAEVKKPGASVKVSCKTSGYTFTEYIMHWVRQAPGQGLEWMGGIIPNNGGTSYNQKFQGRVTMTVDKSTSTGYMELSSLRSEDTAVYYCTRREVYGRNYYALDYWGQGTLVTVSSASTKGPSVFPLAPSSKSTSGGTAALGCLVKDYFPEPVTVSWNSGALTSGVHTFPAVLQSSGLYSLSSVVTVPSSSLGTQTYICNVNHKPSNTKVDKRVEPKSCDKTHTCPPCPAPEFEGGPSVFLFPPKPKDTLMISRTPEVTCVVVAVSHEDPEVKFNWYVDGVEVHNAKTKPREEQYNSTYRVVSVLTVLHQDWLNGKEYKCKVSNKALPAPIEKTISKAKGQPREPQVYTLPPSREEMTKNQVSLTCLVKGFYPSDIAVEWESNGQPENNYKTTPPVLDSDGSFLLYSKLTVDKSRWQQGNVFSCSVMHEALHNHYTQKSLSLSPGK
light 1: not shown
heavy 2: EVQLVESGGGLVQPGRSLRLSCTASGFSLNDYWMSWVRQAPGKGLEWVGYIDVGGSLYYAASVKGRFTISRDDSKSIAYLQMNSLKTEDTAVYYCARGGLTYGFDLWGQGTLVTVSSASTKGPSVFPLAPSSKSTSGGTAALGCLVKDYFPEPVTVSWNSGALTSGVHTFPAVLQSSGLYSLSSVVTVPSSSLGTQTYICNVNHKPSNTKVDKRVEPKSCDKTHTCPPCPAPEFEGGPSVFLFPPKPKDTLMISRTPEVTCVVVAVSHEDPEVKFNWYVDGVEVHNAKTKPREEQYNSTYRVVSVLTVLHQDWLNGKEYKCKVSNKALPAPIEKTISKAKGQPREPQVYTLPPSREEMTKNQVSLTCLVKGFYPSDIAVEWESNGQPENNYKTTPPVLDSDGSFFLYSRLTVDKSRWQQGNVFSCSVMHEALHNHYTQKSLSLSPGK
light 2: DIVMTQSPSSLSASVGDRVTITCQASEDISSYLAWYQQKPGKAPKRLIYGASDLASGVPSRFSASGSGTDYTFTISSLQPEDIATYYCHYYATISGLGVAFGGGTKVEIKRTVAAPSVFIFPPSDEQLKSGTASVVCLLNNFYPREAKVQWKVDNALQSGNSQESVTEQDSKDSTYSLSSTLTLSKADYEKHKVYACEVTHQGLSSPVTKSFNRGEC
4-1BB/NF-κB luciferase reporter, CD40-crosslinked, EC50 [1]: 1.65 nM
4-1BB/NF-κB luciferase reporter, CD40-crosslinked, Fold change in Emax [1]: 4.76 fold
4-1BB/NF-κB luciferase reporter, FAP-crosslinked, EC50 [1]: 0.293 nM
4-1BB/NF-κB luciferase reporter, FAP-crosslinked, Fold change in Emax [1]: 1.19 fold
4-1BB/NF-κB luciferase reporter, uncrosslinked, Fold change in Emax [1]: 1.09 fold
Maximum fluorescence value [2]: 449
CD40/NF-κB reporter (HEK-Blue CD40L), 4-1BB-crosslinked, EC50 [3]: 1.03 nM
CD40/NF-κB reporter (HEK-Blue CD40L), 4-1BB-crosslinked, Fold change in Emax [3]: 5.97 fold
CD40/NF-κB reporter (HEK-Blue CD40L), FAP-crosslinked, Fold change in Emax [3]: 5.41 fold
CD40/NF-κB reporter (HEK-Blue CD40L), uncrosslinked, Fold change in Emax [3]: 5.06 fold
4-1BB/NF-κB luciferase reporter, CD40-crosslinked, EC50 [4]: 0.41 nM
4-1BB/NF-κB luciferase reporter, CD40-crosslinked, Fold change in Emax [4]: 3.56 fold
4-1BB/NF-κB luciferase reporter, FAP-crosslinked, Fold change in Emax [4]: 1.01 fold
4-1BB/NF-κB luciferase reporter, uncrosslinked, Fold change in Emax [4]: 1.1 fold
CD40/NF-κB reporter (HEK-Blue CD40L), 4-1BB-crosslinked, EC50 [5]: 0.69 nM
CD40/NF-κB reporter (HEK-Blue CD40L), 4-1BB-crosslinked, Fold change in Emax [5]: 9.51 fold
CD40/NF-κB reporter (HEK-Blue CD40L), FAP-crosslinked, Fold change in Emax [5]: 6.27 fold
CD40/NF-κB reporter (HEK-Blue CD40L), uncrosslinked, Fold change in Emax [5]: 7.66 fold
EC50 [6]: 2.17 nM
Maximum fluorescence value [6]: 25700
EC50 [7]: 2.77 nM
Maximum fluorescence value [7]: 109000
EC50 [8]: 0.77 nM
Maximum fluorescence value [8]: 29300
Maximum fluorescence value [9]: 77
EC50 [10]: 6.78 nM
Maximum fluorescence value [10]: 108000

B2: MP0310 (FAP/4-1BB bispecific antibody molecule, control) (other)
chain: GSDLGKKLLEAARAGQDDEVRELLKAGADVNAKDYFSHTPLHLAARNGHLKIVEVLLKAGADVNAKDFAGKTPLHLAAADGHLEIVEVLLKAGADVNAQDIFGKTPADIAADAGHEDIAEVLQKAAGSPTPTPTTPTPTPTTPTPTPTGSDLGKKLLEAARAGQDDEVRELLKAGADVNAKDVLGWTPLHLAAFEGHLEIVEVLLKAGADVNAKDKKGWTPLQLAARTGHLEIVEVLLKAGADVNAKDHIGATPLHLAAWQGHPEIVEVLLKAGADVNAQDKSGKTPADLAADAGHEDIAEVLQKAAGSPTPTPTTPTPTPTTPTPTPTGSDLGQKLLKAAQEGQDDEVRELLKAGADVNAKDLRGITPLHVAAWQGHLEIVEVLLKAGADVNAKDSKGETPLHLAAFRGHLEIVEVLLKAGADVNAQDQQGETPADLAALAGHVDIAEVLQKAAGSPTPTPTTPTPTPTTPTPTPTGSDLGQKLLKAAQEGQDDEVRELLKAGADVNAKDLRGITPLHVAAWQGHLEIVEVLLKAGADVNAKDSKGETPLHLAAFRGHLEIVEVLLKAGADVNAQDQQGETPADLAALAGHVDIAEVLQKAAGSPTPTPTTPTPTPTTPTPTPTGSDLGKKLLEAARAGQDDEVRELLKAGADVNAKDYFSHTPLHLAARNGHLKIVEVLLKAGADVNAKDFAGKTPLHLAAADGHLEIVEVLLKAGADVNAQDIFGKTPADIAADAGHEDIAEVLQKAAHHHHHH
4-1BB/NF-κB luciferase reporter, CD40-crosslinked, Fold change in Emax [4]: 1.11 fold
4-1BB/NF-κB luciferase reporter, FAP-crosslinked, EC50 [4]: 0.02 nM
4-1BB/NF-κB luciferase reporter, FAP-crosslinked, Fold change in Emax [4]: 13.8 fold
4-1BB/NF-κB luciferase reporter, uncrosslinked, Fold change in Emax [4]: 1.01 fold
CD40/NF-κB reporter (HEK-Blue CD40L), 4-1BB-crosslinked, Fold change in Emax [5]: 1.01 fold
CD40/NF-κB reporter (HEK-Blue CD40L), FAP-crosslinked, Fold change in Emax [5]: 0.99 fold
CD40/NF-κB reporter (HEK-Blue CD40L), uncrosslinked, Fold change in Emax [5]: 1.03 fold

B3: control anti-FAP antibody 28H1 (antibody, V domains shown)
VH: EVQLLESGGGLVQPGGSLRLSCAASGFTFSSHAMSWVRQAPGKGLEWVSAIWASGEQYYADSVKGRFTISRDNSKNTLYLQMNSLRAEDTAVYYCAKGWLGNFDYWGQGTLVTVSS
VL: EIVLTQSPGTLSLSPGERATLSCRASQSVSRSYLAWYQQKPGQAPRLLIIGASTRATGIPDRFSGSGSGTDFTLTISRLEPEDFAVYYCQQGQVIPPTFGQGTKVEIK
Kd [11]: 1.31 nM
Ratio of KD of 28H1 to KD of test antibody [11]: 1
Ratio of Kd of 28H1 to Kd of test antibody [11]: 1
koff [11]: 0.000255 s⁻¹
kon [11]: 195000 M⁻¹ s⁻¹

B4: C5_V2-YTIQ linked to human IgG1-Fc (Fc fusion)
chain: QVQLVESGGGLVQPGGSLRLSCSASGFTFSSYAMSWVRQAPGKGLEWVSDINSGGQSTFYADSVKGRFTISRDNAKNTLYLQMNSLRAEDTAVYYCAKHPLTYTIATMNDYDYWGQGTQVTVSSEPKSADKTHTCPPCPAPELLGGPSVFLFPPKPKDTLMISRTPEVTCVVVDVEHEDPEVKFNWYVDGVEVHNAKTKPREEQYNSTYRVVSVLTVLHQDWLNGKEYKCKVSSKAFPAPIEKTISKAKGQPREPQVYTLPPSRDELTKNQVSLTCLVKGFYPSDIAVEWESNGQPENNYKTTPPVLDSDGSFFLYSKLTVDKSRWQQGNVFSCSVMHEALHNHYTQKSLSLSPGK
EC50 [12]: 0.7 nM
Maximum fluorescence value [12]: 51700
